{
  "source": "patent US20100184614",
  "about": "“MICROARRAY SYSTEMS AND METHODS FOR IDENTIFYING DNA-BINDING PROTEINS” (published 2010)",
  "molecular_target": "Estrogen receptor alpha (UniProt P03372 P03372:1-595)",
  "sequence (P03372 whole entry, one chain of several)": "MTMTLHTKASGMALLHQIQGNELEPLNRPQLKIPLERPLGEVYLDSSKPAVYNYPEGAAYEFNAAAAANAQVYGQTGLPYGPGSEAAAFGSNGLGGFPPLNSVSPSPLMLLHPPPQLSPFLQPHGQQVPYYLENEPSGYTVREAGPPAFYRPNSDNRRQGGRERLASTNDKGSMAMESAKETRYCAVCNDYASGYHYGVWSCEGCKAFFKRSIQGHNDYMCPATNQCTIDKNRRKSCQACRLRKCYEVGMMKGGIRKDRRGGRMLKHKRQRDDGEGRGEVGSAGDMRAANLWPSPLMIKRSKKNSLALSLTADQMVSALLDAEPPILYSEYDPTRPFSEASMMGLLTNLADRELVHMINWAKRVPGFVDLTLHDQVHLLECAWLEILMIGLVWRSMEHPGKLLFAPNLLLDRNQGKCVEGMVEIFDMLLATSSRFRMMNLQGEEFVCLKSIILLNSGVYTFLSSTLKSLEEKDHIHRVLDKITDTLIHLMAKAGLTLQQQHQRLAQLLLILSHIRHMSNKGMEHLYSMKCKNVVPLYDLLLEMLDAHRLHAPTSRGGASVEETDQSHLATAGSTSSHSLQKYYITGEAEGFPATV",
  "experiment": "EMSA; column gel, 30 min",
  "conditions": "tags: Invitrogen; label: IRDye 700 or Cy3; partially double-stranded; 3' single-stranded tag",
  "procedure": "A similar result is obtained using recombinant estrogen receptor alpha (ER-alpha) protein. ER-alpha is obtained from INVITROGEN® and mixed with YZ11 (its specific probe) labeled with IR Dye 700. The mixture was then loaded on the column gel and run for 30 minutes (FIG. 10).",
  "data": [
    {"binder": "YZ-11 (Table 17) (mixed) DNA 1: CCTGCCAGGTCGCGCTGCCCTCCTTCTACCATGCCTTAGGAGAATTGTTTTGTTT DNA 2: GGTAGAAGGAGGGCAGCGCGACCTGGCAGG", "values": [
      {"measurement": "binding result", "value": "binds"}
    ]}
  ]
}
